# Target: HLA-Cw*0701 (human)
# Assay: cell-based or functional assay
binder,measurement,value
"EGDCAPEEK [peptide (D), EGDCAPEEK (amino acids 2-10 of SEQ ID NO: 2)]","percent lysis (51Cr release) of autologous EBV-B cells loaded with 1 nM peptide, effector/target ratio 5:1",~34%
